Assay results as given in patent publication US20170283834A1, “Processes for Producing A Fermentation Product Using A Fermenting Organism” (Novozymes A/S, priority 2014, published 2017).

Columns and labels:
[1] = Penicillium oxalicum glucoamylase: temperature optimum (Reaction condition assay); format: biochemical; settings: for Relative activity (%): Temperature optimum
Procedure: (§1) Substrate: 1% soluble starch (Sigma S-9765) in deionized water
(§2) Reaction buffer: 0.1 M Acetate buffer at pH 5.3 Glucose concentration determination kit: Wako glucose assay kit (LabAssay glucose, WAKO, Cat#298-65701).
To assess the temperature optimum of the Penicillium oxalicum glucoamylase the “Reaction condition”-assay described above was performed at 20, 30, 40, 50, 60, 70, 80, 85, 90 and 95° C.

[2] = Penicillium oxalicum glucoamylase: heat stability; format: biochemical; settings: for Relative activity (%): Heat stability
Procedure: as §1, §2
(§3) 20 microL soluble starch and 50 microL acetate buffer at pH 5.3 were mixed. 30 microL enzyme solution (50 micro g enzyme protein/ml) was added to a final volume of 100 microL followed by incubation at 37° C. for 15 min.
(§4) The glucose concentration was determined by Wako kits.
To assess the heat stability of the Penicillium oxalicum glucoamylase the Reaction condition assay was modifed in that the enzyme solution and acetate buffer was preincubated for 15 min at 20, 30, 40, 50, 60, 70, 75, 80, 85, 90 and 95° C. Following the incubation 20 microL of starch was added to the solution and the assay was performed as described above.

[3] = Penicillium oxalicum glucoamylase: pH optimum; format: biochemical; settings: for Relative activity (%): pH optimum
Procedure: as §1, §3, §4
pH optimum. To assess the pH optimum of the Penicillium oxalicum glucoamylase the Reaction condition assay described above was performed at pH 2.0, 3.0, 3.5, 4.0, 4.5, 5.0, 6.0 7.0, 8.0, 9.0, 10.0 and 11.0. Instead of using the acetate buffer described in the Reaction condition assay the following buffer was used 100 mM Succinic acid, HEPES, CHES, CAPSO, 1 mM CaCl2, 150 mM KCl, 0.01% Triton X-100, pH adjusted to 2.0, 3.0, 3.5, 4.0, 4.5, 5.0, 6.0 7.0, 8.0, 9.0, 10.0 or 11.0 with HCl or NaOH.

aorsin = biological target: T1, aorsin (Aspergillus oryzae, UniProt Q8NK92); assay: PE001 protease stability, SDS-PAGE after protease treatment; format: biochemical
T1 sequence (Q8NK92 216-652): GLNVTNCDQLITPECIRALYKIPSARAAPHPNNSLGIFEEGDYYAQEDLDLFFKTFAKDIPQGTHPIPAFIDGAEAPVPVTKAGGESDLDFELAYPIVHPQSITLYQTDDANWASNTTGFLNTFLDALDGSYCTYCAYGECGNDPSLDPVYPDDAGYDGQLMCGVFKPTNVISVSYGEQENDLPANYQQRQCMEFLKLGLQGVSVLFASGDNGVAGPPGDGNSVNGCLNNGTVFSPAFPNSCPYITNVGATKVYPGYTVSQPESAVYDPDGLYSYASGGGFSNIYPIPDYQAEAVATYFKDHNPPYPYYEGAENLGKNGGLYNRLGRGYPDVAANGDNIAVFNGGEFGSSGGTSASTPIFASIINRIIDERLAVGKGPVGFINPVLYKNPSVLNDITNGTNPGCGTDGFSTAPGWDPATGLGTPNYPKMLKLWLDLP
Procedure: (§5) 40 μl enzyme solutions (1 mg/ml) in 50 mM sodium acetate buffer, pH 4.5, were mixed with 1/10 volume of 1 mg/ml protease solutions such as aspergillopepsin I described in Biochem J. 1975 April; 147(1):45-53, or the commercially available product from Sigma and aorsin described in Biochemical journal [0264-6021] Ichishima yr: 2003 vol:371 iss:Pt 2 pg:541 and incubated at 4 or 32° C. overnight. As a control experiment, H2O was added to the sample instead of proteases. The samples were loaded on SDS-PAGE to see if the glucoamylases are cleaved by proteases.

aspergillopepsin I = assay: as above; format: biochemical
Procedure: as §5

host proteases = assay: Cleavage during cultivation, SDS-PAGE of culture supernatants; parameters: species or system Aspergillus niger
Procedure: Aspergillus transformant of the variant and the wild type Penicillium oxalicum glucoamylase were cultivated in 6-well MT plates containing 4× diluted YP-2% maltose medium supplemented with 10 mM sodium acetate buffer, pH4.5, at 32° C. for 1 week.
The culture supernatants were loaded on SDS-PAGE.

[4] = Glucoamylase activity (AGU) of variant compared to parent; format: biochemical; settings: 37° C., pH 4.3, maltose 100 mM
Procedure: The Novo Glucoamylase Unit (AGU) is defined as the amount of enzyme, which hydrolyzes 1 micromole maltose per minute under the standard conditions 37° C., pH 4.3, substrate: maltose 23.2 mM, buffer: acetate 0.1 M, reaction time 5 minutes.
An autoanalyzer system may be used. Mutarotase is added to the glucose dehydrogenase reagent so that any alpha-D-glucose present is turned into beta-D-glucose. Glucose dehydrogenase reacts specifically with beta-D-glucose in the reaction mentioned above, forming NADH which is determined using a photometer at 340 nm as a measure of the original glucose concentration.
The glucoamylase activity measures as AGU as described above was checked for the purified enzymes of the wild type Penicillium oxalicum and the variant glucoamylase.
The Glucoamylase Unit (AGU) was defined as the amount of enzyme, which hydrolyzes 1 micromole maltose per minute under the standard conditions (37° C., pH 4.3, substrate: maltose 100 mM, buffer: acetate 0.1 M, reaction time 6 minutes).

[5] = aspergillopepsin I, incubation 32° C. overnight
[6] = culture supernatant, 32° C., 1 week

B1: Penicillium oxalicum glucoamylase: wild type Penicillium oxalicum glucoamylase disclosed in SEQ ID NO: 9 (protein, listed as Penicillium oxalicum)
chain: MRLTLLSGVAGVLCAGQLTAARPDPKGGNLTPFIHKEGERSLQGILDNLGGRGKKTPGTAAGLFIASPNTENPNYYYTWTRDSALTAKCLIDLFEDSRAKFPIDRKYLETGIRDYVSSQAILQSVSNPSGTLKDGSGLGEPKFEIDLNPFSGAWGRPQRDGPALRATAMITYANYLISHGQKSDVSQVMWPIIANDLAYVGQYWNNTGFDLWEEVDGSSFFTIAVQHRALVEGSQLAKKLGKSCDACDSQPPQILCFLQSFWNGKYITSNINTQASRSGIDLDSVLGSIHTFDPEAACDDATFQPCSARALANHKVYVDSFRSIYKINAGLAEGSAANVGRYPEDVYQGGNPWYLATLGASELLYDALYQWDRLGKLEVSETSLSFFKDFDATVKIGSYSRNSKTYKKLTQSIKSYADGFIQLVQQYTPSNGSLAEQYDRNTAAPLSANDLTWSFASFLTATQRRDAVVPPSWGAKSANKVPTTCSASPVVGTYKAPTATFSSKTKCVPAKDIVPITFYLIENTYYGENVFMSGNITALGNWDAKKGFPLTANLYTQDQNLWFASVEFIPAGTPFEYKYYKVEPNGDITWEKGPNRVFVAPTGCPVQPHSNDVWQF
- activity maintained at 95° C. ([1]; 95° C.): more than 80%
- Relative activity (%) ([1]; 20° C.): 63.6%
- Relative activity (%) ([1]; 30° C.): 71.7%
- Relative activity (%) ([1]; 40° C.): 86.4%
- Relative activity (%) ([1]; 50° C.): 99.4%
- Relative activity (%) ([1]; 60° C.): 94.6%
- Relative activity (%) ([1]; 70° C.): 100.0%
- Relative activity (%) ([1]; 80° C.): 92.9%
- Relative activity (%) ([1]; 85° C.): 92.5%
- Relative activity (%) ([1]; 90° C.): 82.7%
- Relative activity (%) ([1]; 95° C.): 82.8%
- Relative activity (%) ([2]; preincubated 15 min at 20° C.): 91.0%
- Relative activity (%) ([2]; preincubated 15 min at 30° C.): 92.9%
- Relative activity (%) ([2]; preincubated 15 min at 40° C.): 88.1%
- Relative activity (%) ([2]; preincubated 15 min at 50° C.): 100.0%
- Relative activity (%) ([2]; preincubated 15 min at 60° C.): 96.9%
- Relative activity (%) ([2]; preincubated 15 min at 70° C.): 86.0%
- Relative activity (%) ([2]; preincubated 15 min at 80° C.): 34.8%
- Relative activity (%) ([2]; preincubated 15 min at 85° C.): 36.0%
- Relative activity (%) ([2]; preincubated 15 min at 90° C.): 34.2%
- Relative activity (%) ([2]; preincubated 15 min at 95° C.): 34.8%
- activity maintained after preincubation ([2]; up to 70° C., preincubation for 15 min): more than 80%
- pH of highest activity ([3]; at the given conditions): 5.0
- activity maintained from pH 2 to 7 ([3]; pH 2 to 7): more than 50%
- Relative activity (%) ([3]; pH 2.0): 71.4%
- Relative activity (%) ([3]; pH 3.0): 78.6%
- Relative activity (%) ([3]; pH 3.5): 77.0%
- Relative activity (%) ([3]; pH 4.0): 91.2%
- Relative activity (%) ([3]; pH 4.5): 84.2%
- Relative activity (%) ([3]; pH 5.0): 100.0%
- Relative activity (%) ([3]; pH 6.0): 55.5%
- Relative activity (%) ([3]; pH 7.0): 66.7%
- Relative activity (%) ([3]; pH 8.0): 30.9%
- Relative activity (%) ([3]; pH 9.0): 17.8%
- Relative activity (%) ([3]; pH 10.0): 15.9%
- Relative activity (%) ([3]; pH 11.0): 16.1%
- cleaved glucoamylase (ca. 60 kDa) (aorsin; incubation 4° C. overnight): 60%
- intact glucoamylase (ca. 70 kDa) (aorsin; incubation 4° C. overnight): 40%
- cleaved glucoamylase (ca. 60 kDa) (aorsin; incubation 32° C. overnight): 90%
- intact glucoamylase (ca. 70 kDa) (aorsin; incubation 32° C. overnight): 10%
- intact glucoamylase (ca. 70 kDa) (aspergillopepsin I; aspergillopepsin I, incubation 4° C. overnight): 100%
- cleaved glucoamylase (ca. 60 kDa) (aspergillopepsin I; [5]): 10%
- intact glucoamylase (ca. 70 kDa) (aspergillopepsin I; [5]): 90%
- SDS-PAGE result after protease treatment (aspergillopepsin I; proteases (aspergillopepsin I, aorsin)): degraded by proteases
- cleavage by host proteases during fermentation (host proteases): cleaved by host proteases during fermentation
- cleaved glucoamylase (ca. 60 kDa) (host proteases; [6]): 10%
- intact glucoamylase (ca. 70 kDa) (host proteases; [6]): 90%
- Relative specific activity AGU/mg [4]: 100%
